For assay [1], the target named is T1, Prototype (Wuhan-Hu-1) rS (SARS-CoV-2 (parent virus, Wuhan-Hu-1), UniProt P0DTC2 14-1273).
Assay [2] addresses T1, Prototype (Wuhan-Hu-1) rS. The assay is described as follows: ELISA: rS coated, mAb titrated, anti-mouse HRP. (An ELISA detects its analyte on a solid surface through an enzyme-linked reagent.)

B1: NVX.324.6 (antibody, V domains shown)
VH: EVQLQQSGPELGKPGTSMKISCKASGYSFTGYTMNWVKQSHGKNLEWIGLINPYNGGTSYNQKFKDKATLTVDKSSSTAYMELLSLTSEDSAVYYCVREHYYYDSGYGGYYAMDYWGQGTSVTVSS
VL: QIVLSQSPAILSASPGDKVTMTCRASASVNYMYWYQQKPGSSPKPWIYATSNLASGVPARFSGSGSGTSYSLTISRVEAEDAAIYYCQQWSSNPYTFGGGTKLEIK
notes: also called mAb NVX.324.6
With B1, the IC50 (usually the concentration that gives 50% inhibition) in assay [1] is more than 3 µg/mL. For the same molecule, the EC50 (as a rule, the midpoint of the concentration-response curve) in assay [2] is more than 5 µg/mL.

B2: NVX.62.12 (antibody, V domains shown)
VH: QVQLQQSGAELVRPGVSVKISCKGSGYTFTDYAMHWVKQSHAKSLEWIGVISTYSGDAYYNQKFKGKATVTVDKSSSTAYMELARLTSEDSAIYFCARNWDDYYAMDYWGQGTSVTVSS
VL: QIILSQSPAILSASPGERVTMTCRATSSVSYMHWYRQKPGSSPQPWIYATSNLASGVPARFSGSGSGTSYSLTISRVEAEDAATYYCQQWSGNPWTFGGGTKLEIK
notes: also called mAb NVX.62.12
With B2, the IC50 in assay [1] is more than 3 µg/mL. Besides, the EC50 in assay [2] was more than 5 µg/mL.
